The supplement of paper PMC6757056
± gives the standard deviation of the averaged measurements.

B1: library; a variant is named by its letters at N, in order (parent)
chain: GCUGUCACCGAGAAACUGUGAAGUAUAUCUUAAACCUGGGCACUUAAAAGAUAUAUGGAGUUAGUAGUGCAACCUGCUCGGUCUGAUGAGUCCNNNNNNGGACGAAACAGC

Columns and labels:
[1] = variants of: B1; experiment: FACS-Seq fitted mean relative fluorescence mCherry/BFP without ligand (log10 relative fluorescence); HEK293T; ligand: cyclic di-GMP (c-di-GMP-II aptamer); higher = higher reporter protein expression; conditions: ligand present: no
Method in brief: (§1)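 With or without ligand for 48 h, enriched HEK293T libraries carrying a lentiviral ribozyme-switch mCherry reporter and EF1α-BFP were sorted into 6 mCherry/BFP bins. Bin genomic DNA was amplified by PCR, barcoded and sequenced on MiSeq. Fluorescence was taken from normal fits to the resulting bin counts. Each fitted mean of log10(mCherry/BFP) was scaled to five spiked-in control ribozymes.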

[2] = variants of: B1; experiment: normalized RNA/DNA level without ligand (relative to sTRSVctl = 100) (log10 (% of sTRSVctl)); HEK293T; ligand: cyclic di-GMP (c-di-GMP-II aptamer); higher = less ribozyme self-cleavage, higher mRNA level; conditions: reporter: mCherry (pCS4076), ligand present: no
Method in brief: (§2)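 HEK293T cells received ligand, where used, 1 h before being transfected with 4 µg per 6-well well of library plasmids encoding reporter-linked ribozyme switches. After 72 h, RNA was extracted with EDTA and sequenced. RNA level was derived from RNA reads per DNA read, normalized to a spiked-in non-cleaving sequence or the top sequences, then scaled and log-transformed. Values were ×100 then log10, the top set was 25 sequences, and the minimum was 100 DNA reads.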

[3] = variants of: B1; experiment: FACS-Seq fitted mean relative fluorescence mCherry/BFP with ligand (log10 relative fluorescence); HEK293T; ligand: cyclic di-GMP (c-di-GMP-II aptamer); ligand concentration (+) FACS-Seq: 1 mM; higher = higher reporter protein expression; conditions: ligand present: yes
Method in brief: as §1

[4] = variants of: B1; experiment: normalized RNA/DNA level with ligand (relative to sTRSVctl = 100) (log10 (% of sTRSVctl)); HEK293T; ligand: cyclic di-GMP (c-di-GMP-II aptamer); ligand concentration (+) RNA-Seq: 1 mM; higher = less ribozyme self-cleavage, higher mRNA level; conditions: reporter: mCherry (pCS4076), ligand present: yes
Method in brief: as §2

Row | Variant | FACS-Seq fitted mean (log10) [1] | normalized RNA/DNA level without ligand (log10) [2] | FACS-Seq fitted mean (log10) [3] | normalized RNA/DNA level with ligand (log10) [4]
1 | AGAAAC | 0.0659 ± 0.072 | 1.617 ± 0.0019 | 0.343 ± 0.052 | 1.8 ± 0.12
2 | AGAAAG | -0.223 ± 0.077 | 1.5 ± 0.058 | 0.0417 ± 0.031 | 1.69 ± 0.1
3 | UGACUC | -0.0587 ± 0.12 | 1.726 ± 0.0085 | 0.268 ± 0.025 | 1.86 ± 0.12
4 | AGACGA | -0.409 ± 0.019 | 1.54 ± 0.063 | -0.212 ± 0.013 | 1.73 ± 0.12
5 | AGACGC | -0.232 ± 0.099 | 1.65 ± 0.066 | -0.0488 ± 0.032 | 1.81 ± 0.098
6 | AGACGU | -1.017 ± 0.0037 | 1.573 ± 0.012 | -0.759 ± 0.072 | 1.75 ± 0.13
7 | CCGGCU | -0.0371 ± 0.0037 | 1.74 ± 0.033 | 0.118 ± 0.024 | 1.89 ± 0.077
8 | UCUGGU | -0.364 ± 0.019 | 1.66 ± 0.049 | -0.0436 ± 0.031 | 1.81 ± 0.044
9 | AGAGGA | -0.441 ± 0.0074 | 1.4 ± 0.11 | -0.212 ± 0.025 | 1.56 ± 0.11
10 | CGAUAA | -0.6883 ± 0.0045 | 1.22 ± 0.1 | -0.358 ± 0.058 | 1.41 ± 0.033
11 | GCUGAA | -0.497 ± 0.029 | 1.45 ± 0.035 | -0.115 ± 0.0012 | 1.65 ± 0.097
12 | ACUCUU | -0.426 ± 0.095 | 1.636 ± 0.0073 | -0.112 ± 0.0059 | 1.83 ± 0.11
13 | ACUGCU | -0.0841 ± 0.15 | 1.616 ± 0.01 | 0.249 ± 0.013 | 1.8 ± 0.14
14 | GCUUCU | -0.15612 ± 8.5e-05 | 1.74 ± 0.019 | 0.0598 ± 0.018 | 1.87 ± 0.11
15 | GCUUCA | -0.32 ± 0.093 | 1.668 ± 0.013 | 0.00326 ± 0.00018 | 1.81 ± 0.11
16 | CCUGGC | -0.646 ± 0.017 | 1.68 ± 0.034 | -0.459 ± 0.0093 | 1.82 ± 0.14
17 | GCUUAA | -0.0927 ± 0.12 | 1.56 ± 0.088 | 0.338 ± 0.039 | 1.7 ± 0.072
18 | GCUUAG | -0.473 ± 0.076 | 1.638 ± 0.0094 | -0.165 ± 0.16 | 1.79 ± 0.069
